The target of the assay is T1, bovine serum albumin (Bos taurus, UniProt P02769).
T1 construct: also called BSA
Briefly: ELISA. Conditions: both partners purified. On the technique in general: ELISA stands for enzyme-linked immunosorbent assay.

T1 sequence (P02769 25-607): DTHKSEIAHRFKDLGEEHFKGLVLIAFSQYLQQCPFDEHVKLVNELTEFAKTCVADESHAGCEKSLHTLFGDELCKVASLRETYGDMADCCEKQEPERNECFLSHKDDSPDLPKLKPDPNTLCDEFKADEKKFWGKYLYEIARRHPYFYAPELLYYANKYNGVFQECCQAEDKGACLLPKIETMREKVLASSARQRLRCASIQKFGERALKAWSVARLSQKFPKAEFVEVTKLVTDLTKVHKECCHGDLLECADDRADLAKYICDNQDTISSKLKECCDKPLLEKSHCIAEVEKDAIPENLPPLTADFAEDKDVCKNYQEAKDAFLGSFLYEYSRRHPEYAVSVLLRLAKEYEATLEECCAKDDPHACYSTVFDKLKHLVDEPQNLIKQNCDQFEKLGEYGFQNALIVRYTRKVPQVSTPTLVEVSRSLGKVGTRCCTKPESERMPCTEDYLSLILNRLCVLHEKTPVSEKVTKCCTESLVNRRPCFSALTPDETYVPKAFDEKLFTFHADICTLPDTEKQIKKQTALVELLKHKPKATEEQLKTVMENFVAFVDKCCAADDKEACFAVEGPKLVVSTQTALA

B1: fluorescein-specific VHH-D4 (VHH)
VHH: QVQLVESGGALVQPGGSLRLSCAASGFTFGSFSMSWYRQATGKEREWVAGLSAGSSSTYYADSVKGRFTISRDNARNTVYLQMNSLKPEDTAVYYCARRTNTSSGSAGSFSTCIDDWGQGTQVTVSS
notes: also called clone D4
As to B1, the binding result is “no binding”.
